Data: the Human Domainome abundance scans (Beltran et al. 2025)
± gives the uncertainty stated by the source.

B1: DNA topoisomerase 3-alpha, residues 812 to 851; numbered along this chain, Q13472 (parent)
chain: TCNCGQEAVLLTVRKEGPNRGRQFFKCNGGSCNFFLWADS

Variants of: B1
Experiment: abundance fitness (aPCA) (normalised: wild type 0, dead -1); higher = more abundant; growth selection in yeast, the domain comes from the species named
Settings: Homo sapiens

Going from TCNCGQEAVLLTVRKEGPNRGRQFFKCNDGSCNFFLWADS [G29D] to TCNCGQEAVLLTVRKEGPNRGRQFFKCNTGSCNFFLWADS [G29T], the abundance fitness falls from 0 ± 0.12 to -0.371 ± 0.22.

First: TCNCGQEAVLLTVRKEGPNRGRQFFKCNPGSCNFFLWADS [G29P]
Second: TCNCGQEAVLLTVRKEGPNRGRQFFKCNRGSCNFFLWADS [G29R]
The abundance fitness of the first is lower: -0.571 ± 0.36 for the first, -0.093 ± 0.059 for the second.

First: TCNCGQEAVLLTVRKEGPNRGRQFFKCNAGSCNFFLWADS [G29A]
Second: TCNCGQEAVLLTVRKEGPNRARQFFKCNGGSCNFFLWADS [G21A]
The abundance fitness of the first is higher: 0.121 ± 0.075 for the first, -0.367 ± 0.083 for the second.

TCNCGQEAVLLTVRKEGPNRSRQFFKCNGGSCNFFLWADS [G21S] and TCNCGQEAVLLTVRKEGPNRIRQFFKCNGGSCNFFLWADS [G21I] are within error of each other in abundance fitness: -0.469 ± 0.11 for the first, -0.787 ± 0.28 for the second.

TCNCGQEAVLLTVRKEGPNRVRQFFKCNGGSCNFFLWADS [G21V] and TCNCGQEAVLLTVRKEGPNRQRQFFKCNGGSCNFFLWADS [G21Q] are within error of each other in abundance fitness: -0.763 ± 0.11 for the first, -0.614 ± 0.14 for the second.

First: TCNCGQEAVLLTVRKEGPNRNRQFFKCNGGSCNFFLWADS [G21N]
Second: TCNCGQEAVLLTVRKEGPNRWRQFFKCNGGSCNFFLWADS [G21W]
The abundance fitness of the first is higher: -0.208 ± 0.11 for the first, -0.89 ± 0.46 for the second.

Going from TCNCGQEAVLLTVRKEGPNRRRQFFKCNGGSCNFFLWADS [G21R] to TCNCGQEAVLLTVRKEGPNGGRQFFKCNGGSCNFFLWADS [R20G], the abundance fitness rises from -0.643 ± 0.13 to -0.171 ± 0.072.

TCNCGQEAVLLTVRKEGPNPGRQFFKCNGGSCNFFLWADS [R20P] and TCNCGQEAVLLTVRKEGPNCGRQFFKCNGGSCNFFLWADS [R20C] are within error of each other in abundance fitness: -0.227 ± 0.12 for the first, -0.549 ± 0.32 for the second.

TCNCGQEAVLLTVRKEGPNEGRQFFKCNGGSCNFFLWADS [R20E] and TCNCGQEAVLLTVRKEGPNYGRQFFKCNGGSCNFFLWADS [R20Y] are within error of each other in abundance fitness: -0.039 ± 0.076 for the first, 0.007 ± 0.099 for the second.

TCNCGQEAVLLTVRKEGPNWGRQFFKCNGGSCNFFLWADS [R20W] and TCNCGQEAVLLTVRKEGPNSGRQFFKCNGGSCNFFLWADS [R20S] are within error of each other in abundance fitness: -0.271 ± 0.086 for the first, -0.167 ± 0.049 for the second.

TCNCGQEAVLLTVRKEGPNHGRQFFKCNGGSCNFFLWADS [R20H] and TCNCGQEAVLLTVRKEGPNDGRQFFKCNGGSCNFFLWADS [R20D] are within error of each other in abundance fitness: 0.199 ± 0.27 for the first, 0.22 ± 0.2 for the second.

TCNCGQEAVLLTVRMEGPNRGRQFFKCNGGSCNFFLWADS [K15M] and TCNCGQEAVLLTVRTEGPNRGRQFFKCNGGSCNFFLWADS [K15T] are within error of each other in abundance fitness: -0.066 ± 0.18 for the first, 0.067 ± 0.045 for the second.

TCNCGQEAVLLTVRWEGPNRGRQFFKCNGGSCNFFLWADS [K15W] and TCNCGQEAVLLTVRCEGPNRGRQFFKCNGGSCNFFLWADS [K15C] are within error of each other in abundance fitness: -0.126 ± 0.19 for the first, -0.342 ± 0.064 for the second.

TCNCGQEAVLLTVRDEGPNRGRQFFKCNGGSCNFFLWADS [K15D] and TCNCGQEAVLLTVRGEGPNRGRQFFKCNGGSCNFFLWADS [K15G] are within error of each other in abundance fitness: 0.06 ± 0.09 for the first, 0.318 ± 0.21 for the second.

First: TCNCGQEAVLLTVRREGPNRGRQFFKCNGGSCNFFLWADS [K15R]
Second: TCNCGQEAVLLTVRYEGPNRGRQFFKCNGGSCNFFLWADS [K15Y]
The abundance fitness of the first is higher: 0.108 ± 0.15 for the first, -0.299 ± 0.099 for the second.

Going from TCNCGQEAVLLTVREEGPNRGRQFFKCNGGSCNFFLWADS [K15E] to TCNCGQEAVLLTVRFEGPNRGRQFFKCNGGSCNFFLWADS [K15F], the abundance fitness falls from 0.105 ± 0.059 to -0.136 ± 0.12.

TCNCGQEAVLLTVRAEGPNRGRQFFKCNGGSCNFFLWADS [K15A] and TCNCGQEAVLLTVRLEGPNRGRQFFKCNGGSCNFFLWADS [K15L] are within error of each other in abundance fitness: -0.282 ± 0.13 for the first, -0.325 ± 0.059 for the second.

TCNCGQEAVLLTVRNEGPNRGRQFFKCNGGSCNFFLWADS [K15N] and TCNCGQEAVLLTVRKEGPNRGRQFFACNGGSCNFFLWADS [K26A] are within error of each other in abundance fitness: 0.031 ± 0.11 for the first, -0.001 ± 0.095 for the second.

TCNCGQEAVLLTVRKEGPNRGRQFFVCNGGSCNFFLWADS [K26V] and TCNCGQEAVLLTVRKEGPNRGRQFFLCNGGSCNFFLWADS [K26L] are within error of each other in abundance fitness: -0.266 ± 0.063 for the first, -0.318 ± 0.096 for the second.

TCNCGQEAVLLTVRKEGPNRGRQFFRCNGGSCNFFLWADS [K26R] and TCNCGQEAVLLTVRKEGPNRGRQFFCCNGGSCNFFLWADS [K26C] are within error of each other in abundance fitness: 0.025 ± 0.12 for the first, -0.13 ± 0.17 for the second.

First: TCNCGQEAVLLTVRKEGPNRGRQFFGCNGGSCNFFLWADS [K26G]
Second: TCNCGQEAVLLTVRKEGPNRGRQFFMCNGGSCNFFLWADS [K26M]
The abundance fitness of the first is higher: -0.004 ± 0.056 for the first, -0.232 ± 0.12 for the second.

Going from TCNCGQEAVLLTVRKEGPNRGRQFFSCNGGSCNFFLWADS [K26S] to TCNCGQEAVLLTVRKEGPNRGRQFRKCNGGSCNFFLWADS [F25R], the abundance fitness falls from -0.011 ± 0.11 to -0.412 ± 0.14.

TCNCGQEAVLLTVRKEGPNRGRQFWKCNGGSCNFFLWADS [F25W] and TCNCGQEAVLLTVRKEGPNRGRQFMKCNGGSCNFFLWADS [F25M] are within error of each other in abundance fitness: -0.123 ± 0.084 for the first, -0.149 ± 0.066 for the second.

TCNCGQEAVLLTVRKEGPNRGRQFKKCNGGSCNFFLWADS [F25K] and TCNCGQEAVLLTVRKEGPNRGRQFVKCNGGSCNFFLWADS [F25V] are within error of each other in abundance fitness: -0.413 ± 0.14 for the first, -0.509 ± 0.076 for the second.

TCNCGQEAVLLTVRKEGPNRGRTFFKCNGGSCNFFLWADS [Q23T] and TCNCGQEAVLLTVRKEGPNRGRDFFKCNGGSCNFFLWADS [Q23D] are within error of each other in abundance fitness: -0.219 ± 0.19 for the first, 0.021 ± 0.28 for the second.

Going from TCNCGQEAVLLTVRKEGPNRGRGFFKCNGGSCNFFLWADS [Q23G] to TCNCGQEAVLLTVRKEGPNRGRHFFKCNGGSCNFFLWADS [Q23H], the abundance fitness rises from -0.21 ± 0.053 to 0.03 ± 0.14.

Going from TCNCGQEAVLLTVRKEGPNRGRWFFKCNGGSCNFFLWADS [Q23W] to TCNCGQEAVLLTVTKEGPNRGRQFFKCNGGSCNFFLWADS [R14T], the abundance fitness rises from -0.574 ± 0.14 to -0.052 ± 0.17.

TCNCGQEAVLLTVWKEGPNRGRQFFKCNGGSCNFFLWADS [R14W] and TCNCGQEAVLLTVSKEGPNRGRQFFKCNGGSCNFFLWADS [R14S] are within error of each other in abundance fitness: -0.075 ± 0.06 for the first, -0.094 ± 0.084 for the second.

TCNCGQEAVLLTVYKEGPNRGRQFFKCNGGSCNFFLWADS [R14Y] and TCNCGQEAVLLTVVKEGPNRGRQFFKCNGGSCNFFLWADS [R14V] are within error of each other in abundance fitness: -0.052 ± 0.11 for the first, -0.037 ± 0.048 for the second.

Compared with TCNCGQEAVLLTVRKEGPLRGRQFFKCNGGSCNFFLWADS [N19L], TCNCGQEAVLLTVRKEGPMRGRQFFKCNGGSCNFFLWADS [N19M] is higher in abundance fitness: -0.195 ± 0.073 for the first, 0.085 ± 0.14 for the second.

First: TCNCGQEAVLLTVRKEGPSRGRQFFKCNGGSCNFFLWADS [N19S]
Second: TCNCGQEAVLLTVRKEGPGRGRQFFKCNGGSCNFFLWADS [N19G]
The abundance fitness of the first is higher: -0.168 ± 0.097 for the first, -0.537 ± 0.14 for the second.
